# Paper PMC8659020, “Ferrocene-Labelled Electroactive Aptamer-Based Sensors (Aptasensors) for Glycated Haemoglobin”
# Target: Haemoglobin (Hb) (UniProt P69905;P68871 2-142;2-147)
# Assay: differential pulse voltammetry (electrochemical aptasensor); aptamer immobilized on electrode; DPV in 10 mM Tris-HCl (stated for clinical-range test; pH and temperature not given); EIS in 5 mM [Fe(CN)6]3-/4-, 0.1 M KCl; aptamer loaded in 5 mM MgCl2, 10 mM Tris-HCl, electrodes rinsed with 0.1 M PBS pH 6.5, 1 mM MgCl2
# Details: protein: commercial; chain copies: 2;2; label: 5' ferrocene; single strand, Mfold-predicted secondary structure
# Chain of Haemoglobin (Hb) (P69905 2-142, chain 1 of 2): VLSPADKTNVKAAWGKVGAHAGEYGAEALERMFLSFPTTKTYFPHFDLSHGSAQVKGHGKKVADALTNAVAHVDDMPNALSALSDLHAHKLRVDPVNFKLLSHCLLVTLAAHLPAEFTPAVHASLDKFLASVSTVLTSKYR
# Chain of Haemoglobin (Hb) (P68871 2-147, chain 2 of 2): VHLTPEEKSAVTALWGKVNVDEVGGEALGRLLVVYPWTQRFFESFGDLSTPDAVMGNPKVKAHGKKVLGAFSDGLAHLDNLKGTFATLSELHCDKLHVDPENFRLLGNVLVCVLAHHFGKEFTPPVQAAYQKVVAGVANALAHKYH
binder,measurement,value
"Hb aptamer (II) (ssDNA, 5' ferrocene; 3' thiol (SH), immobilized on gold screen-printed electrode) DNA: ACGCACACCAGAGACAAGTAGCCCCCCAAACGCGGCCACGGAACGCAGCACCTCCATGGC",Kd,95.9 ± 40 µg/mL
